Assay results from patent US20120220522A1.

Biological target: insulin receptor (IR), B-isoform (UniProt P06213)
Test: relative binding affinity to insulin receptor, displacement of 125I-human insulin

relative activity (relative binding affinity): < 0.5%
Substance: ester insulin lispro folded (2) (ligand)
